Data reported in the supplement of paper PMC9112550, “Optimization of the antimicrobial peptide Bac7 by deep mutational scanning” (BMC Biology, 2022).

These sequences were tested on Escherichia coli TOP10 (assay: shrunken log2 fold change of peptide-encoding DNA abundance (4.5 h post-induction vs induction); higher = less antimicrobial activity (less host growth inhibition)). Settings: time post-induction: 4.5 h; library: site-saturation at positions 5, 18, 19, 20.
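Further: peptides expressed intracellularly from a pBAD plasmid library in pooled LB shake-flask culture, induced with 0.3% L-arabinose, DNA abundance read by NGS, three biological replicates, DESeq2 with apeglm shrinkage.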

Sequence	shrunken log2 fold change
RRIRWRPPRLPRPRPRPRKVPRP	0.302
RRIRWRPPRLPRPRPRPRLVPRP	0.476
RRIRWRPPRLPRPRPRPRPAPRP	0.865
RRIRWRPPRLPRPRPRPRQIPRP	0.459
RRIRWRPPRLPRPRPRPRRKPRP	0.178
RRIRWRPPRLPRPRPRPRRWPRP	0.482
RRIRWRPPRLPRPRPRPRSQPRP	0.434
RRIRWRPPRLPRPRPRPRVHPRP	0.341
RRIRWRPPRLPRPRPRPRVKPRP	0.13
RRIRWRPPRLPRPRPRPRVYPRP	-0.401
RRIRWRPPRLPRPRPRPRWNPRP	-0.0693
RRIRWRPPRLPRPRPRPRYNPRP	-0.396
RRIRWRPPRLPRPRPRPRYWPRP	0.185
RRIRWRPPRLPRPRPRPRYYPRP	-0.0581
RRIRWRPPRLPRPRPRPSAHPRP	0.062
RRIRWRPPRLPRPRPRPSCVPRP	0.121
RRIRWRPPRLPRPRPRPSDDPRP	0.328
RRIRWRPPRLPRPRPRPSDLPRP	-0.175
RRIRWRPPRLPRPRPRPSECPRP	0.0183
RRIRWRPPRLPRPRPRPSENPRP	-0.134
RRIRWRPPRLPRPRPRPSEYPRP	-0.221
RRIRWRPPRLPRPRPRPSGPPRP	0.114
RRIRWRPPRLPRPRPRPSGYPRP	0.141
RRIRWRPPRLPRPRPRPSHCPRP	-0.689
RRIRWRPPRLPRPRPRPSHEPRP	0.0227

Sequence	shrunken log2 fold change
RRIRWRPPRLPRPRPRPSKRPRP	0.149
RRIRWRPPRLPRPRPRPSLEPRP	0.067
RRIRWRPPRLPRPRPRPSMDPRP	-0.128
RRIRWRPPRLPRPRPRPSMEPRP	0.0397
RRIRWRPPRLPRPRPRPSPCPRP	-0.214
RRIRWRPPRLPRPRPRPSPNPRP	0.106
RRIRWRPPRLPRPRPRPSQWPRP	-0.0949
RRIRWRPPRLPRPRPRPSRGPRP	0.532
RRIRWRPPRLPRPRPRPSSFPRP	-0.00317
RRIRWRPPRLPRPRPRPSSWPRP	0.0927
RRIRWRPPRLPRPRPRPSTQPRP	0.0274
RRIRWRPPRLPRPRPRPSWDPRP	0.251
RRIRWRPPRLPRPRPRPSWGPRP	0.121
RRIRWRPPRLPRPRPRPSWKPRP	-0.0536
RRIRWRPPRLPRPRPRPSYEPRP	0.086
RRIRWRPPRLPRPRPRPSYWPRP	-0.415
RRIRWRPPRLPRPRPRPTAHPRP	0.306
RRIRWRPPRLPRPRPRPTASPRP	0.977
RRIRWRPPRLPRPRPRPTEDPRP	0.0661
RRIRWRPPRLPRPRPRPTFEPRP	0.13
RRIRWRPPRLPRPRPRPTGCPRP	0.141
RRIRWRPPRLPRPRPRPTGNPRP	0.2
RRIRWRPPRLPRPRPRPTISPRP	0.21
RRIRWRPPRLPRPRPRPTIVPRP	-0.33
RRIRWRPPRLPRPRPRPTKLPRP	0.156

Sequence	shrunken log2 fold change
RRIRWRPPRLPRPRPRPTLYPRP	-0.0322
RRIRWRPPRLPRPRPRPTMEPRP	0.00667
RRIRWRPPRLPRPRPRPTNMPRP	-0.154
RRIRWRPPRLPRPRPRPTPVPRP	0.49
RRIRWRPPRLPRPRPRPTQHPRP	0.333
RRIRWRPPRLPRPRPRPTSCPRP	0.581
RRIRWRPPRLPRPRPRPTTAPRP	0.432
RRIRWRPPRLPRPRPRPTTEPRP	0.207
RRIRWRPPRLPRPRPRPTTHPRP	0.163
RRIRWRPPRLPRPRPRPTVFPRP	0.255
RRIRWRPPRLPRPRPRPTVLPRP	0.188
RRIRWRPPRLPRPRPRPTWKPRP	0.261
RRIRWRPPRLPRPRPRPTYIPRP	-0.428
RRIRWRPPRLPRPRPRPVALPRP	0.459
RRIRWRPPRLPRPRPRPVCHPRP	0.0811
RRIRWRPPRLPRPRPRPVELPRP	-0.00876
RRIRWRPPRLPRPRPRPVHRPRP	0.181
RRIRWRPPRLPRPRPRPVHSPRP	-0.37
RRIRWRPPRLPRPRPRPVISPRP	-0.0992
RRIRWRPPRLPRPRPRPVKMPRP	0.125
RRIRWRPPRLPRPRPRPVLAPRP	0.582
RRIRWRPPRLPRPRPRPVLTPRP	0.147
RRIRWRPPRLPRPRPRPVMKPRP	0.12
RRIRWRPPRLPRPRPRPVMQPRP	0.294
RRIRWRPPRLPRPRPRPVMYPRP	-0.0288

Sequence	shrunken log2 fold change
RRIRWRPPRLPRPRPRPVNDPRP	0.118
RRIRWRPPRLPRPRPRPVQIPRP	0.278
RRIRWRPPRLPRPRPRPVRPPRP	0.305
RRIRWRPPRLPRPRPRPVTRPRP	-0.0273
RRIRWRPPRLPRPRPRPVWKPRP	0.0259
RRIRWRPPRLPRPRPRPVYAPRP	0.31
RRIRWRPPRLPRPRPRPVYNPRP	-0.817
RRIRWRPPRLPRPRPRPWCNPRP	-0.0973
RRIRWRPPRLPRPRPRPWDYPRP	-0.0902
RRIRWRPPRLPRPRPRPWELPRP	-0.0481
RRIRWRPPRLPRPRPRPWEVPRP	-0.0113
RRIRWRPPRLPRPRPRPWFIPRP	-0.436
RRIRWRPPRLPRPRPRPWGPPRP	0.384
RRIRWRPPRLPRPRPRPWGSPRP	0.0134
RRIRWRPPRLPRPRPRPWHAPRP	0.0362
RRIRWRPPRLPRPRPRPWICPRP	-0.137
RRIRWRPPRLPRPRPRPWIGPRP	0.0176
RRIRWRPPRLPRPRPRPWIRPRP	-0.124
RRIRWRPPRLPRPRPRPWKDPRP	-0.000687
RRIRWRPPRLPRPRPRPWMFPRP	0.00732
RRIRWRPPRLPRPRPRPWMPPRP	-0.127
RRIRWRPPRLPRPRPRPWMSPRP	-0.353
RRIRWRPPRLPRPRPRPWQGPRP	-0.11
RRIRWRPPRLPRPRPRPWQLPRP	-0.18
RRIRWRPPRLPRPRPRPWRCPRP	0.144

Sequence	shrunken log2 fold change
RRIRWRPPRLPRPRPRPWRHPRP	-0.141
RRIRWRPPRLPRPRPRPWSWPRP	1.16
RRIRWRPPRLPRPRPRPWVFPRP	0.262
RRIRWRPPRLPRPRPRPWVSPRP	-0.0613
RRIRWRPPRLPRPRPRPWWPPRP	0.19
RRIRWRPPRLPRPRPRPWYNPRP	-0.119
RRIRWRPPRLPRPRPRPYAIPRP	-0.347
RRIRWRPPRLPRPRPRPYAVPRP	0.0097
RRIRWRPPRLPRPRPRPYCHPRP	-0.437
RRIRWRPPRLPRPRPRPYDHPRP	-0.207
RRIRWRPPRLPRPRPRPYELPRP	-0.0904
RRIRWRPPRLPRPRPRPYFDPRP	-0.811
RRIRWRPPRLPRPRPRPYFEPRP	-0.483
RRIRWRPPRLPRPRPRPYGYPRP	-0.345
RRIRWRPPRLPRPRPRPYIPPRP	-1.15
RRIRWRPPRLPRPRPRPYKDPRP	-0.33
RRIRWRPPRLPRPRPRPYKIPRP	-0.286
RRIRWRPPRLPRPRPRPYLRPRP	-0.37
RRIRWRPPRLPRPRPRPYLYPRP	-0.216
RRIRWRPPRLPRPRPRPYMWPRP	0.00889
RRIRWRPPRLPRPRPRPYNHPRP	-1.43
RRIRWRPPRLPRPRPRPYNYPRP	-0.331
RRIRWRPPRLPRPRPRPYQCPRP	-0.325
RRIRWRPPRLPRPRPRPYSQPRP	-0.425
RRIRWRPPRLPRPRPRPYTNPRP	-0.993

Sequence	shrunken log2 fold change
RRIRWRPPRLPRPRPRPYTSPRP	-0.0806
RRIRWRPPRLPRPRPRPYVFPRP	-0.142
RRIRYRPPRLPRPRPRPAALPRP	-0.478
RRIRYRPPRLPRPRPRPACDPRP	-0.00452
RRIRYRPPRLPRPRPRPACMPRP	-0.0495
RRIRYRPPRLPRPRPRPACSPRP	-0.447
RRIRYRPPRLPRPRPRPAEQPRP	0.0374
RRIRYRPPRLPRPRPRPAFKPRP	-0.145
RRIRYRPPRLPRPRPRPAFVPRP	-0.178
RRIRYRPPRLPRPRPRPAGYPRP	0.0815
RRIRYRPPRLPRPRPRPAIFPRP	-0.0382
RRIRYRPPRLPRPRPRPALEPRP	-0.486
RRIRYRPPRLPRPRPRPANDPRP	-0.0297
RRIRYRPPRLPRPRPRPAPAPRP	0.0272
RRIRYRPPRLPRPRPRPARGPRP	0.515
RRIRYRPPRLPRPRPRPASDPRP	-0.348
RRIRYRPPRLPRPRPRPASHPRP	-1
RRIRYRPPRLPRPRPRPASVPRP	-0.256
RRIRYRPPRLPRPRPRPATLPRP	-0.307
RRIRYRPPRLPRPRPRPAVRPRP	-0.0403
RRIRYRPPRLPRPRPRPCAPPRP	-0.329
RRIRYRPPRLPRPRPRPCERPRP	0.0112
RRIRYRPPRLPRPRPRPCFQPRP	-0.267
RRIRYRPPRLPRPRPRPCFWPRP	-0.136
RRIRYRPPRLPRPRPRPCGMPRP	-0.217
